From PMC7532188

Biological target: His-tagged TASOR(354–633), tandem SPOC-DomI construct (human) (UniProt Q9UK61)
Test: SEC-MALS; complex co-expressed in E. coli and purified by Ni-affinity; Superdex 200 (10/300), 293 K, 20 mM HEPES pH 7.5, 0.5 M NaCl, 0.5 mM TCEP

Sequence of UniProt Q9UK61 (Q9UK61 354-633): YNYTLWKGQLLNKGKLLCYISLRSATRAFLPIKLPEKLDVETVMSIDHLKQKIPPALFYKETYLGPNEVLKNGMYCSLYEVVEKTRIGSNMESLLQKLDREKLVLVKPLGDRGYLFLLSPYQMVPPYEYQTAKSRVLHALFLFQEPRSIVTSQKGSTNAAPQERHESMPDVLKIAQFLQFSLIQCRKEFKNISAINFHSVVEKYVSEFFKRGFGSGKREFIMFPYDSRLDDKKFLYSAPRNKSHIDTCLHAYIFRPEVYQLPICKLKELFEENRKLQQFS

- stoichiometry N: 1
Substance: MPP8 C-terminus (residues 528–860) (from UniProt Q99549-1 528-860) (domain or fragment)
